# Laboratory results published in publication PMC9256709.
# Target: AGL6 fused to YFP or CFP (Arabidopsis thaliana) (UniProt P29386)
# Assay: FRET or BRET; in vivo FRET on the FYL1-AGL6-AGL6-AGL15 tetramer: one CFP and one YFP fusion co-expressed with the unlabeled other members in tobacco leaf cells; steady-state FRET efficiency in nuclei
# Sequence of UniProt P29386 (P29386 whole entry, the tested form may be a part): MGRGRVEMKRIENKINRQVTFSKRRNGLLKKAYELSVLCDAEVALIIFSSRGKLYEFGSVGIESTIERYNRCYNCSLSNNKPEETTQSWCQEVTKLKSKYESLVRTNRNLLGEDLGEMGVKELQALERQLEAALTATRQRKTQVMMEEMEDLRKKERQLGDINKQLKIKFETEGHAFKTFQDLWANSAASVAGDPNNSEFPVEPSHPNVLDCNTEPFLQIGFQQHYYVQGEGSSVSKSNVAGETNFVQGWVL
substance,measurement,value
FYF-like 1 (FYL1/AGL71) fused to CFP or YFP (from UniProt Q9LT93 1-207) (natural protein),"FRET efficiency (AGL6:CFP/FYL1:YFP, unlabeled AGL15 co-expressed)",32%
